Paper PMC4340663

Experiments:
[1] = molecular target: KNH1144 SOSIP gp140 trimer with the hexaarginine (R6) mutation (HIV-1 subtype A isolate KNH1144); assay: native gel or EMSA
[2] = molecular target: KNH1144 SOSIP gp140 trimer with the hexaarginine (R6) mutation (HIV-1 subtype A isolate KNH1144); assay: negative-stain electron microscopy

Substance | stoichiometry N [1] | stoichiometry N (molecules per trimer) [1] | stoichiometry N (molecules per trimer) [2]
KNH1144 SOSIP gp140 trimer with the hexaarginine (R6) mutation (complex) | 3 |  | 
four-domain soluble CD4 (domain or fragment) |  | 3 | 3
two-domain soluble CD4 (domain or fragment) |  | 3 | 
